Experimental data published in publication PMC4066579 (Nature methods, 2009).
Where two headings read alike, the source gives them in different places.

Tests used:
[1] = target: the molecule itself; assay: native MS
[2] = target: the molecule itself; assay: native MS; remark: listed apart in the source

B1: MacB (natural protein, UniProt P75831 1-648, looked up)
chain: MTPLLELKDIRRSYPAGDEQVEVLKGISLDIYAGEMVAIVGASGSGKSTLMNILGCLDKATSGTYRVAGQDVATLDADALAQLRREHFGFIFQRYHLLSHLTAEQNVEVPAVYAGLERKQRLLRAQELLQRLGLEDRTEYYPAQLSGGQQQRVSIARALMNGGQVILADEPTGALDSHSGEEVMAILHQLRDRGHTVIIVTHDPQVAAQAERVIEIRDGEIVRNPPAIEKVNVTGGTEPVVNTVSGWRQFVSGFNEALTMAWRALAANKMRTLLTMLGIIIGIASVVSIVVVGDAAKQMVLADIRSIGTNTIDVYPGKDFGDDDPQYQQALKYDDLIAIQKQPWVASATPAVSQNLRLRYNNVDVAASANGVSGDYFNVYGMTFSEGNTFNQEQLNGRAQVVVLDSNTRRQLFPHKADVVGEVILVGNMPARVIGVAEEKQSMFGSSKVLRVWLPYSTMSGRVMGQSWLNSITVRVKEGFDSAEAEQQLTRLLSLRHGKKDFFTWNMDGVLKTVEKTTRTLQLFLTLVAVISLVVGGIGVMNIMLVSVTERTREIGIRMAVGARASDVLQQFLIEAVLVCLVGGALGITLSLLIAFTLQLFLPGWEIGFSPLALLLAFLCSTVTGILFGWLPARNAARLDPVDALARE
stoichiometry N [1]: 2

B2: MexB (natural protein, Pseudomonas aeruginosa strain PAO1, UniProt P52002 1-1046, looked up)
chain: MSKFFIDRPIFAWVIALVIMLAGGLSILSLPVNQYPAIAPPAIAVQVSYPGASAETVQDTVVQVIEQQMNGIDNLRYISSESNSDGSMTITVTFEQGTDPDIAQVQVQNKLQLATPLLPQEVQRQGIRVTKAVKNFLMVVGVVSTDGSMTKEDLSNYIVSNIQDPLSRTKGVGDFQVFGSQYSMRIWLDPAKLNSYQLTPGDVSSAIQAQNVQISSGQLGGLPAVKGQQLNATIIGKTRLQTAEQFENILLKVNPDGSQVRLKDVADVGLGGQDYSINAQFNGSPASGIAIKLATGANALDTAKAIRQTIANLEPFMPQGMKVVYPYDTTPVVSASIHEVVKTLGEAILLVFLVMYLFLQNFRATLIPTIAVPVVLLGTFGVLAAFGFSINTLTMFGMVLAIGLLVDDAIVVVENVERVMAEEGLSPREAARKSMGQIQGALVGIAMVLSAVFLPMAFFGGSTGVIYRQFSITIVSAMALSVIVALILTPALCATMLKPIEKGDHGEHKGGFFGWFNRMFLSTTHGYERGVASILKHRAPYLLIYVVIVAGMIWMFTRIPTAFLPDEDQGVLFAQVQTPPGSSAERTQVVVDSMREYLLEKESSSVSSVFTVTGFNFAGRGQSSGMAFIMLKPWEERPGGENSVFELAKRAQMHFFSFKDAMVFAFAPPSVLELGNATGFDLFLQDQAGVGHEVLLQARNKFLMLAAQNPALQRVRPNGMSDEPQYKLEIDDEKASALGVSLADINSTVSIAWGSSYVNDFIDRGRVKRVYLQGRPDARMNPDDLSKWYVRNDKGEMVPFNAFATGKWEYGSPKLERYNGVPAMEILGEPAPGLSSGDAMAAVEEIVKQLPKGVGYSWTGLSYEERLSGSQAPALYALSLLVVFLCLAALYESWSIPFSVMLVVPLGVIGALLATSMRGLSNDVFFQVGLLTTIGLSAKNAILIVEFAKELHEQGKGIVEAAIEACRMRLRPIVMTSLAFILGVVPLAISTGAGSGSQHAIGTGVIGGMVTATVLAIFWVPLFYVAVSTLFKDEASKQQASVEKGQ
stoichiometry N [1]: 3

B3: EmrE-EFE(1–113), unmodified (free N-terminal methionine) (natural protein)
chain: MNPYIYLGGAILAEVIGTTLMKFSEGFTRLWPSVGTIICYCASFWLLAQTLAYIPTGIAYAIWSGVGIVLISLLSWGFFGQRLDLPAIIGMMLICAGVLIINLLSRSTPHEFE
stoichiometry N [2]: 2

B4: EmrE-EFE(1–113), N-terminally formylated (natural protein)
chain: MNPYIYLGGAILAEVIGTTLMKFSEGFTRLWPSVGTIICYCASFWLLAQTLAYIPTGIAYAIWSGVGIVLISLLSWGFFGQRLDLPAIIGMMLICAGVLIINLLSRSTPHEFE
modifications: formylation at an N-terminal methionine
stoichiometry N [2]: 2
